Laboratory results from article PMC12701072, “DNA Wrapping by a tetrameric bacterial histone”.

Tests used:
[1] = molecular target: HLp from Leptospira perolatii (Leptospira perolatii); test: SEC-MALS; HLp alone; Superdex 75 Increase 10/300 GL, 25 mM Tris, 50 mM NaCl, 50 mM KCl, pH 7.5; samples incubated at 37 °C for 10 min; oligomer in solution
[2] = molecular target: HLp from Leptospira perolatii (Leptospira perolatii); test: crystal structure; HLp-DNA_2: HLp co-crystallized with the 30-bp-GC40 DNA fragment, 1.90 Å; monomer in the asymmetric unit, tetramer by crystallographic symmetry
[3] = molecular target: HLp from Leptospira perolatii (Leptospira perolatii); test: crystal structure; DNA-free HLp, 1.30 Å, molecular replacement; dimer in the asymmetric unit, tetramer by crystallographic symmetry
[4] = molecular target: HLp from Leptospira perolatii (Leptospira perolatii); test: SEC-MALS; HLp incubated with the 30-bp-GC40 DNA fragment at a protein-to-DNA molar ratio of 2:1, 37 °C for 10 min; Superdex 75 Increase 10/300 GL, 25 mM Tris, 50 mM NaCl, 50 mM KCl, pH 7.5
[5] = molecular target: HLp from Leptospira perolatii (Leptospira perolatii); test: crystal structure; HLp-DNA_1: HLp co-crystallized with the 30-bp-GC40 DNA fragment, 2.10 Å; dimer in the asymmetric unit, tetramer by crystallographic symmetry
[6] = molecular target: T1, HLp (Leptospira perolatii, UniProt A0A2M9ZN55 1-63); test: MST; 20 mM Tris pH 8.0, 150 mM NaCl; EMSA: 25 mM Tris pH 8.0, 50 mM NaCl, 50 mM KCl, 37 C 10 min; MST: 20 mM Tris pH 8.0, 150 mM NaCl, measured at 25 C (HLp 10 nM DNA, HMfB 20 nM DNA); conditions: protein: recombinant; tags: N-terminal His6, cleaved with TEV protease; chain copies: 4; label: 5'-Cy5 on strand 1; blunt
T1 sequence: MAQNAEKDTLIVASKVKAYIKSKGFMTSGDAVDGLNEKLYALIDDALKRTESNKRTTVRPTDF

[7] = molecular target: HMfB (Methanothermus fervidus, UniProt P19267 1-69); test: MST; EMSA: 25 mM Tris pH 8.0, 50 mM NaCl, 50 mM KCl, 37 C 10 min; MST: 20 mM Tris pH 8.0, 150 mM NaCl, measured at 25 C (HLp 10 nM DNA, HMfB 20 nM DNA); conditions: protein: recombinant; chain copies: 4; label: 5'-Cy5 on strand 1; blunt
Sequence of HMfB (P19267 whole entry): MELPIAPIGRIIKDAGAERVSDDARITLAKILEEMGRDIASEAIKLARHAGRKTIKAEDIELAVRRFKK

[8] = molecular target: T1, HLp; test: SEC-MALS; complex 69.2 +/- 5.7 kDa: one tetramer with two duplexes; EMSA: 25 mM Tris pH 8.0, 50 mM NaCl, 50 mM KCl, 37 C 10 min; MST: 20 mM Tris pH 8.0, 150 mM NaCl, measured at 25 C (HLp 10 nM DNA, HMfB 20 nM DNA); conditions: protein: recombinant; tags: N-terminal His6, cleaved with TEV protease; chain copies: 4; blunt

Molecule “HLp from Leptospira perolatii (natural protein)” has a stoichiometry N [1] of 4, a stoichiometry N [2] of 4 and a stoichiometry N [3] of 4. The stoichiometry N [4] was 4 and the stoichiometry N [5] was 4.

B1: 80-bp DNA [Cy5] (dsDNA)
DNA 1: CCGTACTGTCGTCTGCGGCCTTTGATTATCAATTAAAGCGTTCTACGGCGTTTTTGATCGCTCAACGTGCGGAGCTAGAT
DNA 2: ATCTAGCTCCGCACGTTGAGCGATCAAAAACGCCGTAGAACGCTTTAATTGATAATCAAAGGCCGCAGACGACAGTACGG
With B1 the Kd [6] was 3180 ± 1060 nM and the Kd [7] was 580 ± 130 nM.

B2: 30-bp-GC40 (dsDNA)
DNA 1: TTTAAAGCCGTTTAAAGCCGTTTAAAGCCG
DNA 2: CGGCTTTAAACGGCTTTAAACGGCTTTAAA
B2: binds [8].

B3: 80-bp-GC40 [Cy5] (dsDNA)
DNA 1: TTTAAAGCCGTTTAAAGCCGTTTAAAGCCGTTTAAAGCCGTTTAAAGCCGTTTAAAGCCGTTTAAAGCCGTTTAAAGCCG
DNA 2: CGGCTTTAAACGGCTTTAAACGGCTTTAAACGGCTTTAAACGGCTTTAAACGGCTTTAAACGGCTTTAAACGGCTTTAAA
For B3, the Kd [6] was 1240 ± 140 nM and the Kd [7] was 310 ± 80 nM.
